Source: IntAct's records for PubMed 17462627

B1: Emerin (Homo sapiens), P50402 (parent)
chain: MDNYADLSDTELTTLLRRYNIPHGPVVGSTRRLYEKKIFEYETQRRRLSPPSSSAASSYSFSDLNSTRGDADMYDLPKKEDALLYQSKGYNDDYYEESYFTTRTYGEPESAGPSRAVRQSVTSFPDADAFHHQVHDDDLLSSSEEECKDRERPMYGRDSAYQSITHYRPVSASRSSLDLSYYPTSSSTSFMSSSSSSSSWLTRRAIRPENRAPGAGLGQDRQVPLWGQLLLFLVFVIVLFFIYHFMQAEEGNPF

How the values were obtained:
[1] = variants of: B1; conditions: with SYNE1, Q8NF91-3
[2] = variants of: B1; conditions: with SYNE2, Q8WXH0-3
Sequence of SYNE2, Q8WXH0-3 (Q8WXH0 6031-6885): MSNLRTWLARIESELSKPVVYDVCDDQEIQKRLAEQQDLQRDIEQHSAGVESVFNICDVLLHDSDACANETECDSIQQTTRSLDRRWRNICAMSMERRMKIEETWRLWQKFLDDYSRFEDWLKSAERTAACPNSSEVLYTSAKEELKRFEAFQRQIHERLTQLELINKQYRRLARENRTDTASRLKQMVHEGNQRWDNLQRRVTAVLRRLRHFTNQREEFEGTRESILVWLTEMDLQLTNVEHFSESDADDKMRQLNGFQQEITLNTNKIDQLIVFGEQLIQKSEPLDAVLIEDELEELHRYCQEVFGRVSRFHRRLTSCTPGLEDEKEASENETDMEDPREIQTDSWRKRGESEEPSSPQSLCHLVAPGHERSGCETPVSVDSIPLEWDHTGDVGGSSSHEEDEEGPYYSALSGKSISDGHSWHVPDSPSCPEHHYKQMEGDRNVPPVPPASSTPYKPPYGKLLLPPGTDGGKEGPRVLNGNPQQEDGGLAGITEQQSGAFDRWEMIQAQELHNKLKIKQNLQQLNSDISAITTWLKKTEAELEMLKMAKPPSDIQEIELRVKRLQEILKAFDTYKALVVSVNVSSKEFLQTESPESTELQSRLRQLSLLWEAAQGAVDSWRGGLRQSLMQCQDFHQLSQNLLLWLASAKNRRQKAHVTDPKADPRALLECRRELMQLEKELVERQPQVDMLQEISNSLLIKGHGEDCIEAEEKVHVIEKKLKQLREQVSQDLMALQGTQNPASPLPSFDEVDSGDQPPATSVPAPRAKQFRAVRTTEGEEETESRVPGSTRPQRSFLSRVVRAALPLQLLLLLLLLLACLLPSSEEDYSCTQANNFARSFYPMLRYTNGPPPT

Sequence of SYNE1, Q8NF91-3 (Q8NF91 other isoform, or with tags, fused parts or gaps): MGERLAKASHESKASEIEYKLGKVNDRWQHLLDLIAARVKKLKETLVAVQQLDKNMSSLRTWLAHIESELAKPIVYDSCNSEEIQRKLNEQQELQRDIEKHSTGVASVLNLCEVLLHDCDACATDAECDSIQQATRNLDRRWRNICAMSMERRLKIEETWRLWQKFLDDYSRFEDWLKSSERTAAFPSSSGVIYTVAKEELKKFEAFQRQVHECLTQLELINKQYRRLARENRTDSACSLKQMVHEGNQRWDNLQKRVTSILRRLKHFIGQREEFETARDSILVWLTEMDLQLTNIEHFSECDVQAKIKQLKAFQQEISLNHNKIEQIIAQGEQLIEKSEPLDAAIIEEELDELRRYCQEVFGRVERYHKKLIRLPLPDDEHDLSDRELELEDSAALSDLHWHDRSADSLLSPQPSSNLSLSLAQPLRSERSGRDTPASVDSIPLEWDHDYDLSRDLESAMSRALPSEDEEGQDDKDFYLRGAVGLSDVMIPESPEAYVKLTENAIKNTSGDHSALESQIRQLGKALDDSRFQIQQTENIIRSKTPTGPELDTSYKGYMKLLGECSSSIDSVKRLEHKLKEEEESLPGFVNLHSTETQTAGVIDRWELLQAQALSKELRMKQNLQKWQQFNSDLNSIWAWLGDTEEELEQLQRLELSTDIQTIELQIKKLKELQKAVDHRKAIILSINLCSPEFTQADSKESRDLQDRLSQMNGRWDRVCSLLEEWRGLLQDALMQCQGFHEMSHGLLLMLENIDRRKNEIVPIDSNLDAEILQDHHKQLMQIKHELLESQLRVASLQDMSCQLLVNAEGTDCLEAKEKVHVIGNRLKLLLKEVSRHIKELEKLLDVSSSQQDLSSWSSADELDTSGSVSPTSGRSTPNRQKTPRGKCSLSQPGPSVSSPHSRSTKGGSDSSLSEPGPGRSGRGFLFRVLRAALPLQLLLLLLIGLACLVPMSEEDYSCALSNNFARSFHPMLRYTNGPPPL

Variant | effect of a mutation on the interaction [1] | effect of a mutation on the interaction [2]
P183T | decreasing interaction strength | increasing interaction strength
P183H | increasing interaction strength | increasing interaction strength
Q133H | increasing interaction strength | 
